The values below come from PMC9527255, “Structure of the TnsB transposase-DNA complex of type V-K CRISPR-associated transposon”.

For data set [1], the target named is Scytonema hofmannii TnsB transposase (type V-K CRISPR-associated transposon) (Scytonema hofmannii (UTEX 2349)). In words: cryo-EM structure; 40 uM shTnsB with 10 uM STC DNA in 50 mM HEPES pH 7.5, 300 mM NaCl, 5 mM MgCl2, 1 mM TCEP, 30 min at 37 C; post-catalytic strand-transfer complex, 2.46 A.
Data set [2] has the same target. In words: SEC-MALS; shTnsB mixed with the reconstituted strand-transfer complex (STC) DNA; the high MW peak at 358.7 kDa holds the STC DNA and shTnsB. (Size exclusion chromatography separates by hydrodynamic size, large species first.)
The target in data set [3] is T1, shTnsB (Scytonema hofmannii UTEX 2349, UniProt PDB:8AA5_1 1-596).
T1 sequence: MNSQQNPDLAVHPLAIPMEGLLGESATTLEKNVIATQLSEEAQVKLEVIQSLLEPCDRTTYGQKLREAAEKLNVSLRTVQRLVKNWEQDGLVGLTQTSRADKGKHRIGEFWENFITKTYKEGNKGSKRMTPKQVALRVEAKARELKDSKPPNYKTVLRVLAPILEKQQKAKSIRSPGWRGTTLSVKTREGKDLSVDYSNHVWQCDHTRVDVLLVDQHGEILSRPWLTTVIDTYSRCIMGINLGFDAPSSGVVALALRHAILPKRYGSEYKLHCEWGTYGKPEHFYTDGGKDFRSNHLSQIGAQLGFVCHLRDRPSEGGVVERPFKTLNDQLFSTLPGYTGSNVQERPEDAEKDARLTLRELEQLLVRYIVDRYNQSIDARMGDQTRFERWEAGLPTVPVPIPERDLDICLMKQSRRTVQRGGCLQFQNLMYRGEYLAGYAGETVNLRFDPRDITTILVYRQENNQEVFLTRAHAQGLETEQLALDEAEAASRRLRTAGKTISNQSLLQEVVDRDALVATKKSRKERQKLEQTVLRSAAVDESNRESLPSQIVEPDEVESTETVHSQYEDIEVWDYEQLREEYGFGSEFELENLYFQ
In words: EMSA; 5 mM MgCl2; four bands, three sites expected; 50 mM HEPES pH 7.5, 300 mM NaCl, 5 mM MgCl2, 1 mM TCEP, 37 °C, 30 min; 6% DNA retardation gel. As to conditions: protein: recombinant; tags: C-terminal His6 (TEV treatment, tag removed); chain copies: 4; blunt.

Data set [4] has as its target T1, shTnsB. In words: cryo-EM structure (2.4 Å); 5 mM MgCl2; TnsB tetramer; 50 mM HEPES pH 7.5, 300 mM NaCl, 5 mM MgCl2, 1 mM TCEP, 37 °C, 30 min; 6% DNA retardation gel. Conditions: protein: recombinant; tags: C-terminal His6 (TEV treatment, tag removed); chain copies: 4; six strands: 1:2 1:3 (RE arm), 4:5 4:6 (LE arm); the arms pair through the 5 nt target between the insertion sites (1:4); 5' polyA overhangs on strands 2 and 5.

Broadly, the stoichiometry N is the number of molecules, sites or subunits per partner or assembly.

For the molecule “Scytonema hofmannii TnsB transposase (type V-K CRISPR-associated transposon) (enzyme)”, the stoichiometry N in data set [1] and in data set [2] was 4 each time.

B1: LE (dsDNA)
DNA 1: ATTATATTGATGACATTTAATTTGTCATCAATTAATTAAGCAACGCTGATGGGTCACGACGACAATTAAATAGTCACAATGACATTAATCTGTCACCGACGACAGATAATTTGTCACTGTACACTACGCCTTTTGTGG
DNA 2: CCACAAAAGGCGTAGTGTACAGTGACAAATTATCTGTCGTCGGTGACAGATTAATGTCATTGTGACTATTTAATTGTCGTCGTGACCCATCAGCGTTGCTTAATTAATTGATGACAAATTAAATGTCATCAATATAAT
Regarding B1, the binding result in the data set with shTnsB [3] was “binds”.

B2: STC DNA (RE_Target, RE_polyA, Target_1, LE_Target, LE_polyA, Target_2) (structured_DNA)
DNA 1: ATAAGGATTTTACTGATGACAATAATTTGTCACAACGACATATAATTAGTCACTGTACACGTAGAGACGTAGCAATGCT
DNA 2: AAAAAAAAAAAAAAATGTACAGTGACTAATTATATGTCGTTGTGACAAATTATTGTCATCAGTAAAATCCTTAT
DNA 3: AGCATTGCTACGTCT
DNA 4: AATTAAATAGTCACAATGACATTAATCTGTCACCGACGACAGATAATTTGTCACTGTACACTACGCCTTTTGTGGAGATG
DNA 5: AAAAAAAAAAAAAAATGTACAGTGACAAATTATCTGTCGTCGGTGACAGATTAATGTCATTGTGACTATTTAATT
DNA 6: CATCTCCACAAAAGG
B2: the binding result with shTnsB [4] was “binds”.
